Assay results as given in the nanobody polyreactivity screen of Harvey et al. (2022).

Assay: yeast display, Sf9 membrane polyspecificity reagent, FACS + sequencing; frameworks hold sequencing errors
Method in brief: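 Galactose-induced (36–48 hours) yeast carrying a synthetic nanobody display library were exposed to 10% biotinylated, detergent-solubilized Sf9 membrane reagent at 4 °C for 1 hour. FACS followed streptavidin microbead enrichment, using low and high (top ~1%) gates for expression (anti-HA) and reagent binding (streptavidin). Colony PCR, MiSeq 2 × 250 sequencing and CDR-length filtering followed. Labels for polyreactivity reflect the gate of origin.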

Row | Sequence | polyreactivity (PSR sort gate)
1 | QVQLVESGGGLVQAGGSLRLSCAASGSIFPHYAMGWYRQAHGKERELVAAMSYSGGRTYYADSVKGRFTISRDNAKNTVYLQMNSLKPEDTAVYYCAKPERVLYHGDYWGQGTQVTVSS | low polyreactivity
2 | QVQLEESGGGLVQAGGSLRLSCAASGITFSDYAMGWYRQAPGKERELVAGISFTVGSTYYADSVKRPFTISRDNAKNTVYLQMNSLKPEDTAVYLCNADSFVDLDYWGQGTQVTVSS | low polyreactivity
3 | QVQLVDSGGGLVQAGGSLRLSCAASGSPFTTYAMGWYRQAPGTERELVAAISTNGGRTFYSDSVKGRFTISRDNAKNSVYLQMNSLKPEDTALYYCAAEYDLYAPGYYYWGEGTQVTVSS | low polyreactivity
4 | QVQLVESGGGLVQAGGSLRLSCAASGRIFVGYAMGWYRQAPGKERELVAAISSDGGSTYYADSVKGRFTISRDNAKNTVYLQMNSLKPEDSAVYYCNAYYGRFPYYADDYWGQGTQVTVSS | low polyreactivity
5 | QVQLVQSGGGLVQAGGSLRLSSAASGRIFATNAMGWYRQAPGKERELVAAITTSGGSTYYADSVKGRFTISRDNAKNTVYLHLNSLKPEDTAVYYCAARRGPNSYRWRMGYWGHGTQVTVSS | high polyreactivity
6 | QVQLVESGGGIVQAGGSLRLSCAASGSTFAYYAIGWYRQAPGKEREFVATITWTGGSTNYADSETGRFTISRDNAKNSVYLQMNSLKPEATAVYYSAASFVISYDYWGQGTQVTVSS | high polyreactivity
7 | QVQLVESGGGLVQAGGSLRLSCAASGLTFEYYAMGWYRQAPGKERELVAAITSTGSTNYADSVKGRFTISRDNAKNTVYLQMNSLKPEDTAVYFCNAEKPEGSTLYDYDYWGQGTQVTVSS | low polyreactivity
8 | QVQLVESGGGLVQAGGSLRLSCAATGSIINRYVMGWYRQAPGKEREFVAAIRNTGGSTYYADSVKGRFTISRDNAKNTVYLQMNSLKPEDPAVYYCAAVYRSAYDGLDHGYRRHDYWGQGTQVTVSS | high polyreactivity
9 | QVQLVESGGGLVQAGGSLRLSCAASGSTFYYYAMGWYRPAPGKERELVAAISSRGGSTFYADSVKGRFTISRDNAKNTVYLQMNSLKPEDTAVYYCNAYRYDRSQYYPYDYWGQGTQVTVSS | high polyreactivity
10 | QVQLVESGGGLVQAGGSLRLSCAASGIIFYGYAMGWYRQAPGKERELVAAIRWRGGSTYYADSVKGRFTISRDNAKNTVYLQMNSLKPADTAVYFCAADQTRYTSVFSSTRYDYWGQGTQVTVSS | low polyreactivity
11 | QVQLVESGGGLVQAGGSLRLSCAASGSIFGLYTMGWYRQAPGKERELVAAISSVGSTYYADSVKGRFTISRDNAKNTVYLQMNSLKPEDTAVYYCNVYSRTHYQTYTDDYWGQGTQVTVSS | high polyreactivity
12 | QVHLVESGGGLVQAGGSLRLSCAASGRTFYDNAMVWYRQAPGKERELVAAISKRGSSTYYADSVKGRFTISRYTAKNSVYLEMNSLKPEDTAVYYCAADSLLGWSVEYWGKGTQVTVSS | high polyreactivity
13 | QVQLVESGGGLVQAGGSLRLSCAASGLTFRKYVMGWYRQAPGKERELVAAISGGGGSTYYADSVKGRFTISRDNAKNTVYLQMNSLKPEDTAVYYCAAVIYRGYYYWGQGTQVTVSS | high polyreactivity
14 | QVQLVESGGGLVQAGGSLRLSCAASGSIFRWNAMGWYRQAPGKERELVAAITYSGGTTYYADSVKGRFTISRDNAKNTVYLQMNSLKPEDTAVYYCAATYYDYYRLYHLGYWGQGTQVTVSS | high polyreactivity
15 | QVQLVESGGGLVQAGGSLRLSCAASGRTFGDNAMGWYRQAPGKERELVAAISSGDSTNYADSVKGRFTISRDNAKNTVYLQMNSLKPEDTAVYYCAAEFSHTYVYVDLDYWGQGTQVTVSS | low polyreactivity
16 | QVQLVESGGGLVQAGGSLRLSCAASGNIFAINAMGWYRQPPGKERELVAAISSRGGSTTYADSVKGRFTISRDIAKNTVYLQMNSLKPEDTAVYDCAADFVRDRFFRYDYWGQGTQVTVSS | high polyreactivity
17 | QDQLVESGGGLVQAGGSHRLSCAASGSIFYRNAMGWFRQAPGKERELVAAISARGGRTNYADSVKGRFTISRDNAKNTVYLQMTSLKPEDTAVYYCNTADSWYHRSQAYDYWGQGTQVTVSS | high polyreactivity
18 | QVQLVESGGGLVQAGGSLRLSCAASGSTFGKYAMGWYRQAPGKERELVAAISKSGGSTYYADSVKGRFTISRDNAKNTVYLQMNSLKPEDTAVYYCNAYPHAYTGSTREGDYWGQGTQVTVSS | high polyreactivity
19 | QVQLVESGGGLVQAGGSLGLSCAASGYTFDHNAMGWYRQAPGKERELVAAINWSGGSTYYADSVKVRFTISRDNAKNTVYLQMKSLKPEDTAVYYCARYRVLASRVDYWGQGTQVTVSS | high polyreactivity
20 | QVQLVESGGGLVQAGGSLRLSCAASGFIFARYAMGWNRQAPGKERELVAAISTSGGSTYYADSVKGRFTISRDNAKNTVYLQMNSLNPEDTAVYYCNKLRLSRLVHPSGYYWGQGTQVTVSS | high polyreactivity
21 | QVQLVESGGALVQAGGSLRLSCAASGSIFGSYALGWYRQAPGKERELVASITRVDSTNYADSVKGRFTISRDNAKNTVYLQMNSLKPEDTAVYYCAADITSPAYATYDYWGQGTQVTVSS | low polyreactivity
22 | QVQLVESGGGLVQAGGSLRLSCAASGSIFYDYMGWYRQAPGKERELVAVISYSGSSTYYADSVKGRFTISRDNAKNTVYLQMNSLKPEDTAVYYCAARNVNGWDYDYWGQGTQVTVSS | low polyreactivity

Row | Sequence | polyreactivity (PSR sort gate)
23 | HVQLVESGGGLVQAGGSLRLNCAASGSTFKRNAMGWYRQATGKERELVAAISRSGGSTYYADSVKGRFTISRDNAKTTVYLQMNSLNPEDTAVYFCNALRGTASWRGYYWGQGTQVTVSS | high polyreactivity
24 | QVQLVESGGGLVQAGGSLRLICAASGFTFYNYAKGWYRQAPGKERQLVAAISTSGGSTYYADSVKGRFTISRDNAKNTVYLQMNSLKPEDTAVYYCAAQATAYSYAYYYWGQGTQVTVSS | low polyreactivity
25 | QDQLVESGGGLVQAGGSLRLSCAASGSNFPTNAMGWYRPAPGKERELVADITIRGGGTSYADSVKGRFTISRDNAKNTVYLHMNSLKPEDTAFYYCARSKSTELKRLLFDSWGQGTQVTVSS | low polyreactivity
26 | QVQLVESGGSLVQAGGSLRLSCASSGYIFRLYAMGWYRHAPGKEREYVATITASGGTYYADSVKGRFTISRDNAKNTVYLQMNSLKPEDTAVYYCAAAKLRRLSRVRYVYWGQGTQVTVSS | high polyreactivity
27 | QVQLVESGGGLVQAGGSLRLSCAASGRIFPSYAMGWYRQAPGKERELVAAISSSGGRTYYADSVKGRFTISRDNAKNTVYLQRNSLKPEDSAVYYCAARWVQYGVRYDYWGHGTQVTVSS | high polyreactivity
28 | QVQLVESGGGLVQAGGSLRLSCAASGRTFARYAMGRYRQAPGKERELVAAITRGSGSTYYADSVKGRFTISRDNAKNTVYLQMNSLKTEDTAVYFCAKRSRGLKFDYWGQGTQVTVSS | high polyreactivity
29 | QVQHVESGGGLVQAGRSLRLICAASGRTFSRYALGWSRQAPGKERELVASIRSGGSTNYADSVKGRFTISRDNAKNTVYLQMNSLKPEDSAVYYCAKRGRLRNYDYWGQGTQVTVSS | high polyreactivity
30 | QVQLVESGGGLVQAGGSIRLSCAASGSSFVSYAMGWYRQAPGKERELVATISWRGGSTYYADSVKGRFTISRDNAMNTVYLQMNSLKTEDTAVYYCAADVWHSQYYYGYEYWGQGTQVTVSS | low polyreactivity
31 | QVQLVESGGGLVQAGGSLRLICAASGRTFKYYAMGWYRPAPGKERELVATISFRGGSTYYADSVKGRFTISRDNAKNTVYLQMNSLKPEDTSVYYCAATTPYYTPRRRNDYWGQGTQVTVSS | high polyreactivity
32 | QVQLVESGGGLVQAGGSLRLSCAASGRTFSHYAMGWSRQAPGKERELVAASNTRTGTTYYADSVKGRFTISRDNAKNTVNLQMNSLKPEDTAVYYCNAVPYYSYQGWILVGDYDYWGQGTQVTVSS | low polyreactivity
33 | QVQLVESGGGLVQAGGSLRLSCAASGRIFDYYTMGWSRQAPGKVRELVAAISSGGRTYYADSVKGRFTISRDNAKNTVYLQMNSLKPEDTAVYYCNALDTRHTYTYTGGKRFPYDHWGQGTQVTVSS | low polyreactivity
34 | QVQLVESGGGLVQAGGILRLSCAASGRIFRFYTMGWYRQAPGKERELVAAITSSGRTYYADSVKGRVTISRDNAKNTVYLQMNSLKPEDTAVYYCNKYFRPRTILASPGEYWGQGTQVTVSS | high polyreactivity
35 | QVQLVESGGGLVQAGGSLRLSCAASGSIFYYAMGWYRQAPGKERELVAAITWRGGRTYYADSVKGRFTISRDNAKNTVYLQMNSLKPEDTAVYDFNAVAPGKYNLWGQGTQVTVSS | high polyreactivity
36 | QVQLVESGGGLVQAGGSLRLSCAASGRILKWYAMGGYRQAPGKVRELVAAISARGGSTFYADSVKGRFTSSRDNAKNTVYLPMNSLKPEDTAVYYCAKRWPYTMYYWGQGTQVTVSS | high polyreactivity
37 | QVQLVESGGGLVQAGGSLRLSCAASGSTIGPNAMGSYRQAPGKERELVAAIRSNGGRTYYADSVKGRFTISRDNAKNTVYLQMNSLKPEDTAVYYCAAPHYPYDTPYGYWGQGTQVTVSS | low polyreactivity
38 | QVQLVESGGGLVQAGGSLRLSCAASGIIFYAYAMGWYRQAPGKERELVARISRGGSTNYADSVKGRFTISRDNAKNTFYLQMNSLKPEDTAVYYCAAYYAYLRYGGLYEYWGQGTQVTVSS | high polyreactivity
39 | QVQLVESGGGIVQAGGSLRLSCAASGFTFEYYAMGWYRQAPGKERELVADITSGGTYYADSVKGRFTISRDNAKNTVYLQMNSLKPEDTAVYYCAADFGQPYTYYAKENYWGQGTQVTVSS | low polyreactivity
40 | QVQLVESGGGLVQAGGSLRLSCAASGIIFPGNVMGWYRQAPGKERELVAGISSSGSRTYYADSVKGRFTISRDNAKNTVYLQMNSLKPEDTAVYYCAAEHQRSRGRRYYIGYDYWGQGTQVTVSS | low polyreactivity
41 | QVQIVESGGGLVQAGGSLRLSCAASGFIFDFYTMGWYRQAPGKERELVAAITWSGDSTYYADSVKGRFTISRDNAKNTVYLQMNSLKPEDTGVYYCAADWWGVWYFDYDYWGQGTQVTVSS | low polyreactivity
42 | QVQLVESGGGLVQAGGSLRLSCAASGSTFLSYAKGWYRQATGKEREVVAAISGRGGSTYYADSVKGRFTISRDNAKNTVYLKMNSLKPEDTAVYYCARVYRPSADTYNYWGQGTQVTVSS | high polyreactivity
43 | QVQLVESGGGLVQAGGSLRLSCAASGRTFSYSAMGWYRQAPGKERELVAAISSGGSTNYADSVKGRFTISRDNAKNTVYLQMNSLKPEDTAVYYCATSSIWGSGRVRWVTYYYWGQGTQVTVSS | low polyreactivity
